Laboratory results as given in patent US20110105397A1, “METHOD FOR TREATING HEART FAILURE WITH STRESSCOPIN-LIKE PEPTIDES” (priority 2009, published 2011).
Where “and” joins values, the source holds several entries; their conditions need not be identical. Equal entries are not always repeated. Where no end group is shown, it is not given here.

Key:
[1] = molecular target: T1, human corticotrophin releasing hormone receptor type 1 (CRHR1) (human, UniProt P34998 24-415); experiment: radioligand competition against [125I]-(Tyr0)-sauvagine, CRHR1 assay; ND = Not detectable
T1 construct: whole, on cells; cAMP assay on whole cells; radioligand assay on cell membranes; also called h-CRHR1; CRH receptor type 1
T1 sequence (looked up): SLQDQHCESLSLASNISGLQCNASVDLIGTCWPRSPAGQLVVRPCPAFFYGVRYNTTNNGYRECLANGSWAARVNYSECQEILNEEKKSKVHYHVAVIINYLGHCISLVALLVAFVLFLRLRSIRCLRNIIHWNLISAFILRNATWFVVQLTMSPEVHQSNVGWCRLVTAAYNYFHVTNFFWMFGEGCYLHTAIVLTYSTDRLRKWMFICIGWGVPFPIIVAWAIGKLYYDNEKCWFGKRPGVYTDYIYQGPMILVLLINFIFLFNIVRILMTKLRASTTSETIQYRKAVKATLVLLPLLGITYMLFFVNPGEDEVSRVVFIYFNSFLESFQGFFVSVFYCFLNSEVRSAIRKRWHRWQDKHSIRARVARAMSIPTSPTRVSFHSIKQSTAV

[2] = molecular target: T2, human corticotrophin releasing hormone receptor type 2 (CRHR2) (human) (UniProt Q13324); experiment: radioligand competition against [125I]-anti-sauvagine-30, membranes of SK-N-MC cells with human CRHR2
T2 sequence (looked up): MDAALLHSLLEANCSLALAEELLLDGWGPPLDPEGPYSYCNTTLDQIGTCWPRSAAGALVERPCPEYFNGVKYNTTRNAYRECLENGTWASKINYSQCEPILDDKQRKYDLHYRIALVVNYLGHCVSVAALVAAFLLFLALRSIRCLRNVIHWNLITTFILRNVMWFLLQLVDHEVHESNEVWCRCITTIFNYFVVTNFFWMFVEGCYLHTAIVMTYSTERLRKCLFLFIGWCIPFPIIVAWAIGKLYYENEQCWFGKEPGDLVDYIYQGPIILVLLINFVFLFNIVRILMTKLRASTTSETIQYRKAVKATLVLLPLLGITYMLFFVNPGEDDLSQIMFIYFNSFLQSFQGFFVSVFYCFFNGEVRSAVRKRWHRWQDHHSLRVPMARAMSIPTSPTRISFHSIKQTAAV

[3] = molecular target: T2, human corticotrophin releasing hormone receptor type 2 (CRHR2) (human); experiment: cell-based or functional assay

In the case of HPGSRIVLSLDVPIGLLQILLEQARARAAREQATTNARILARV-NH2 (also called h-SRP) [human stresscopin related peptide], the binding result [1] is reported as “no binding”, the pKI [2] is reported as 7.57 -log10(M) and the pA50 [3] is reported as 9.32 -log10(M) and 9.58 -log10(M) and 9.23 -log10(M).
